Assay results published in PMC5428781, “Novel insights into the interaction of UBA5 with UFM1 via a UFM1-interacting sequence” (Scientific Reports, 2017).
Ends that are not written are not given here. fluorescein = fluorescein label on the N-terminus

Target: T1, ubiquitin-fold modifier 1 (UFM1) (human, UniProt P61960 1-83)
T1 construct: ubiquitin-fold modifier 1 (UFM1), human; the form that ends at Gly 83 (the residues missing in the models are counted up to Gly 83); pET15b, N-terminal His6 followed by a TEV site; purified by the protocol of the UBA5 constructs, which removes the tag; In solution a monomer and a fraction of dimer; also called UFM1 WT; UFM1 alone; source: E. coli, purified (His-Trap, TEV cleavage, second …)
Assay: fluorescence polarisation; UFM1 at various concentrations with 120 nM N-terminal fluorescein-labeled UIS peptide; 50 mM Hepes pH 7.5, 150 mM NaCl, 5% glycerol, 0.2 mg/ml BSA; room temperature; triplicate; one site specific binding fit
Conditions: both partners purified

T1 sequence (P61960 1-83): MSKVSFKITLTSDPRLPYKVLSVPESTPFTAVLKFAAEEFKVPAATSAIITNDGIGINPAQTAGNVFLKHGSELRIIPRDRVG

fluorescein-IIHEDNEWGIELV (peptide, UniProt Q9GZZ9 334-346, looked up, source: synthetic peptide) [fluorescein-labeled UIS peptide (amino acids 334–346 of UBA5)] showed a Kd of 8.47 µM.
